{"source": "paper PMC9482650", "about": "“Quantitative fragmentomics allow affinity mapping of interactomes” (Nature Communications, 2022)", "data": [{"target": "T1, APBA1_1, Q02410", "T1 sequence (Q02410 651-752, limits assumed, looked up)": "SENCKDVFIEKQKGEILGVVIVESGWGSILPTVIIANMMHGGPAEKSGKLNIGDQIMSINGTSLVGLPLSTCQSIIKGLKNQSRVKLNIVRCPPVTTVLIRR", "assay": "holdup assay", "design": "key: below the threshold = too weak to quantify, mostly under pKd 3.1 to 4", "conditions": "plain residues with an end cap or a label only (N-terminal biotin on a linker: ado-ado)", "values": [{"binder": "PYPTADHMLA", "note": "[JUP, P14923]", "pKd": "below the threshold"}]}, {"target": "T2, APBA1_2, Q02410", "T2 sequence (Q02410 742-832, limits assumed, looked up)": "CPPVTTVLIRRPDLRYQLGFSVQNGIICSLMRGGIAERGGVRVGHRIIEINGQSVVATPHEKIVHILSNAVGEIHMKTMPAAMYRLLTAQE", "assay": "holdup assay", "design": "key: below the threshold = too weak to quantify, mostly under pKd 3.1 to 4", "conditions": "plain residues with an end cap or a label only (N-terminal biotin on a linker: ado-ado)", "values": [{"binder": "PYPTADHMLA", "note": "[JUP, P14923]", "pKd": "below the threshold"}]}, {"target": "ARHGEF12, Q9NZN5-2", "sequence (Q9NZN5 other isoform, or with tags, fused parts or gaps)": "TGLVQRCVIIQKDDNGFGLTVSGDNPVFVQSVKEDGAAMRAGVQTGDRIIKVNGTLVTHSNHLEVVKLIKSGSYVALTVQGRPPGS", "assay": "holdup assay", "design": "key: below the threshold = too weak to quantify, mostly under pKd 3.1 to 4", "conditions": "plain residues with an end cap or a label only (N-terminal biotin on a linker: ado-ado)", "values": [{"binder": "PYPTADHMLA", "note": "[JUP, P14923]", "pKd": "below the threshold"}]}, {"target": "DLG2_2, Q15700", "sequence (Q15700 189-283)": "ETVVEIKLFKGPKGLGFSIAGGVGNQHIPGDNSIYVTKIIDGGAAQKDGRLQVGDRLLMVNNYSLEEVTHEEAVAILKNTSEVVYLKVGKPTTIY", "assay": "holdup assay", "design": "key: below the threshold = too weak to quantify, mostly under pKd 3.1 to 4", "conditions": "plain residues with an end cap or a label only (N-terminal biotin on a linker: ado-ado)", "values": [{"binder": "PYPTADHMLA", "note": "[JUP, P14923]", "pKd": "below the threshold"}]}, {"target": "DLG5_1, Q8TDM6", "sequence (Q8TDM6 617-713)": "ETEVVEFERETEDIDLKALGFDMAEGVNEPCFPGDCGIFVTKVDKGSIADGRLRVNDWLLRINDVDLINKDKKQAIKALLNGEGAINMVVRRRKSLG", "assay": "holdup assay", "design": "key: below the threshold = too weak to quantify, mostly under pKd 3.1 to 4", "conditions": "plain residues with an end cap or a label only (N-terminal biotin on a linker: ado-ado)", "values": [{"binder": "PYPTADHMLA", "note": "[JUP, P14923]", "pKd": "below the threshold"}]}, {"target": "FRMPD2_2, Q68DX3", "sequence (Q68DX3 944-1038)": "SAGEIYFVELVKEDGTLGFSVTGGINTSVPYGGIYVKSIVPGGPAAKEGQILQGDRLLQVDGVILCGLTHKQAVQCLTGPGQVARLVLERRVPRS", "assay": "holdup assay", "design": "key: below the threshold = too weak to quantify, mostly under pKd 3.1 to 4", "conditions": "plain residues with an end cap or a label only (N-terminal biotin on a linker: ado-ado)", "values": [{"binder": "PYPTADHMLA", "note": "[JUP, P14923]", "pKd": "below the threshold"}]}, {"target": "GOPC, Q9HD26", "assay": "holdup assay", "design": "key: below the threshold = too weak to quantify, mostly under pKd 3.1 to 4", "conditions": "plain residues with an end cap or a label only (N-terminal biotin on a linker: ado-ado)", "values": [{"binder": "PYPTADHMLA", "note": "[JUP, P14923]", "pKd": "below the threshold"}]}, {"target": "T3, GRIP1_2, Q9Y3R0", "T3 sequence (Q9Y3R0 145-248, limits assumed, looked up)": "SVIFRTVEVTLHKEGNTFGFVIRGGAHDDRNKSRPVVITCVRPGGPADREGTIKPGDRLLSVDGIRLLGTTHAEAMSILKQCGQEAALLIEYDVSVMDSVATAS", "assay": "holdup assay", "design": "key: below the threshold = too weak to quantify, mostly under pKd 3.1 to 4", "conditions": "plain residues with an end cap or a label only (N-terminal biotin on a linker: ado-ado)", "values": [{"binder": "PYPTADHMLA", "note": "[JUP, P14923]", "pKd": "below the threshold"}]}, {"target": "T4, GRIP1_3, Q9Y3R0", "T4 sequence (Q9Y3R0 247-346, limits assumed, looked up)": "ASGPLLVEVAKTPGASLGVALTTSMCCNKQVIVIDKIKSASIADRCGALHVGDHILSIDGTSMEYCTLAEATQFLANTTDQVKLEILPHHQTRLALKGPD", "assay": "holdup assay", "design": "key: below the threshold = too weak to quantify, mostly under pKd 3.1 to 4", "conditions": "plain residues with an end cap or a label only (N-terminal biotin on a linker: ado-ado)", "values": [{"binder": "PYPTADHMLA", "note": "[JUP, P14923]", "pKd": "below the threshold"}]}, {"target": "T5, GRIP1_4, Q9Y3R0", "T5 sequence (Q9Y3R0 467-571, limits assumed, looked up)": "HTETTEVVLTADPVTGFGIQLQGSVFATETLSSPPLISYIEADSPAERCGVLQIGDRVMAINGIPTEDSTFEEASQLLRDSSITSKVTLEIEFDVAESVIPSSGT", "assay": "holdup assay", "design": "key: below the threshold = too weak to quantify, mostly under pKd 3.1 to 4", "conditions": "plain residues with an end cap or a label only (N-terminal biotin on a linker: ado-ado)", "values": [{"binder": "PYPTADHMLA", "note": "[JUP, P14923]", "pKd": "below the threshold"}]}, {"target": "GRIP2_3, Q9C0E4", "sequence (Q9C0E4 238-339)": "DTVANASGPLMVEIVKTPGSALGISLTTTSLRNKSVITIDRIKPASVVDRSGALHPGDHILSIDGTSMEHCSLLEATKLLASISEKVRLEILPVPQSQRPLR", "assay": "holdup assay", "design": "key: below the threshold = too weak to quantify, mostly under pKd 3.1 to 4", "conditions": "plain residues with an end cap or a label only (N-terminal biotin on a linker: ado-ado)", "values": [{"binder": "PYPTADHMLA", "note": "[JUP, P14923]", "pKd": "below the threshold"}]}, {"target": "T6, HTRA4, P83105", "T6 sequence (P83105 378-476, limits assumed, looked up)": "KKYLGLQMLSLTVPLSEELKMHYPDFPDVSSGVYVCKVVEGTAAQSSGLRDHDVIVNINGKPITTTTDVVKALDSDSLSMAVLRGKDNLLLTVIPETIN", "assay": "holdup assay", "design": "key: below the threshold = too weak to quantify, mostly under pKd 3.1 to 4", "conditions": "plain residues with an end cap or a label only (N-terminal biotin on a linker: ado-ado)", "values": [{"binder": "PYPTADHMLA", "note": "[JUP, P14923]", "pKd": "below the threshold"}]}, {"target": "Inadl_2, Q8NI35", "sequence (Q8NI35 238-335)": "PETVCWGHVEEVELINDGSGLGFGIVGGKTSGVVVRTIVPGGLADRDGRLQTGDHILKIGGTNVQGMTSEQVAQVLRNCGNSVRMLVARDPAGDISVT", "assay": "holdup assay", "design": "key: below the threshold = too weak to quantify, mostly under pKd 3.1 to 4", "conditions": "plain residues with an end cap or a label only (N-terminal biotin on a linker: ado-ado)", "values": [{"binder": "PYPTADHMLA", "note": "[JUP, P14923]", "pKd": "below the threshold"}]}, {"target": "Inadl_8, Q8NI35", "sequence (Q8NI35 1425-1530)": "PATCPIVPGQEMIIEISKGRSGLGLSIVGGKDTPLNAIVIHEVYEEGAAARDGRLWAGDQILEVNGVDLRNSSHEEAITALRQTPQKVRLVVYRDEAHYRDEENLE", "assay": "holdup assay", "design": "key: below the threshold = too weak to quantify, mostly under pKd 3.1 to 4", "conditions": "plain residues with an end cap or a label only (N-terminal biotin on a linker: ado-ado)", "values": [{"binder": "PYPTADHMLA", "note": "[JUP, P14923]", "pKd": "below the threshold"}]}, {"target": "Inadl_9, Q8NI35", "sequence (Q8NI35 1530-1615)": "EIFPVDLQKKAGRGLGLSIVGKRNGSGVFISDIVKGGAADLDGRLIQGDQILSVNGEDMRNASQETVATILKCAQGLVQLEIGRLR", "assay": "holdup assay", "design": "key: below the threshold = too weak to quantify, mostly under pKd 3.1 to 4", "conditions": "plain residues with an end cap or a label only (N-terminal biotin on a linker: ado-ado)", "values": [{"binder": "PYPTADHMLA", "note": "[JUP, P14923]", "pKd": "below the threshold"}]}, {"target": "T7, LIN7A, O14910", "T7 sequence (O14910 103-200, limits assumed, looked up)": "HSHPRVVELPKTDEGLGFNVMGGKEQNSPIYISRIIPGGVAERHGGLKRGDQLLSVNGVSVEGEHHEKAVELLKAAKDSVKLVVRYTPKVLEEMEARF", "assay": "holdup assay", "design": "key: below the threshold = too weak to quantify, mostly under pKd 3.1 to 4", "conditions": "plain residues with an end cap or a label only (N-terminal biotin on a linker: ado-ado)", "values": [{"binder": "PYPTADHMLA", "note": "[JUP, P14923]", "pKd": "below the threshold"}]}, {"target": "T8, LRRC7, Q96NW7", "T8 sequence (Q96NW7 1440-1537, limits assumed, looked up)": "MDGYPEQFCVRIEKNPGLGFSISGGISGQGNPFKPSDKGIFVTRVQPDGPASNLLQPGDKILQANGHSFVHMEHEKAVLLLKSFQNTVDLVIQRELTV", "assay": "holdup assay", "design": "key: below the threshold = too weak to quantify, mostly under pKd 3.1 to 4", "conditions": "plain residues with an end cap or a label only (N-terminal biotin on a linker: ado-ado)", "values": [{"binder": "PYPTADHMLA", "note": "[JUP, P14923]", "pKd": "below the threshold"}]}, {"target": "MAGI2_2, Q86UL8", "sequence (Q86UL8 410-522)": "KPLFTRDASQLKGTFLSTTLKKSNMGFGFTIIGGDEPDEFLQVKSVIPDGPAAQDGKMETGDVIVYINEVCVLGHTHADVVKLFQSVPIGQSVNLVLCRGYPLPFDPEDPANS", "assay": "holdup assay", "design": "key: below the threshold = too weak to quantify, mostly under pKd 3.1 to 4", "conditions": "plain residues with an end cap or a label only (N-terminal biotin on a linker: ado-ado)", "values": [{"binder": "PYPTADHMLA", "note": "[JUP, P14923]", "pKd": "below the threshold"}]}, {"target": "NHERF2_2, Q15599", "sequence (Q15599 142-238)": "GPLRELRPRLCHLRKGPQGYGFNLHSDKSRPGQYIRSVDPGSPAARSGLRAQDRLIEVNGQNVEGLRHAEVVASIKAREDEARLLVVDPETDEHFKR", "assay": "holdup assay", "design": "key: below the threshold = too weak to quantify, mostly under pKd 3.1 to 4", "conditions": "plain residues with an end cap or a label only (N-terminal biotin on a linker: ado-ado)", "values": [{"binder": "PYPTADHMLA", "note": "[JUP, P14923]", "pKd": "below the threshold"}]}, {"target": "NOS1, P29475", "sequence (P29475 9-101)": "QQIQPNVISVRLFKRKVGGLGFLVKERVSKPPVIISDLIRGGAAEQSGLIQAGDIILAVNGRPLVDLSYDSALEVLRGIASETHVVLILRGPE", "assay": "holdup assay", "design": "key: below the threshold = too weak to quantify, mostly under pKd 3.1 to 4", "conditions": "plain residues with an end cap or a label only (N-terminal biotin on a linker: ado-ado)", "values": [{"binder": "PYPTADHMLA", "note": "[JUP, P14923]", "pKd": "below the threshold"}]}, {"target": "T9, PARD3B_1, Q8TEW8", "T9 sequence (Q8TEW8 196-299, limits assumed, looked up)": "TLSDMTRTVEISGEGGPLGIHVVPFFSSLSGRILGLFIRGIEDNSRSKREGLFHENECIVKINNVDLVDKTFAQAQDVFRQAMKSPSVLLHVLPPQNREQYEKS", "assay": "holdup assay", "design": "key: below the threshold = too weak to quantify, mostly under pKd 3.1 to 4", "conditions": "plain residues with an end cap or a label only (N-terminal biotin on a linker: ado-ado)", "values": [{"binder": "PYPTADHMLA", "note": "[JUP, P14923]", "pKd": "below the threshold"}]}, {"target": "PARD3_3, Q8TEW0", "sequence (Q8TEW0 582-685)": "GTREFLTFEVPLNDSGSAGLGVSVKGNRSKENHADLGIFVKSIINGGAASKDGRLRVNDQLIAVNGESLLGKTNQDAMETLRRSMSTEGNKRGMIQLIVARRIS", "assay": "holdup assay", "design": "key: below the threshold = too weak to quantify, mostly under pKd 3.1 to 4", "conditions": "plain residues with an end cap or a label only (N-terminal biotin on a linker: ado-ado)", "values": [{"binder": "PYPTADHMLA", "note": "[JUP, P14923]", "pKd": "below the threshold"}]}, {"target": "T10, PCLO, Q9Y6V0", "T10 sequence (Q9Y6V0 4491-4600, limits assumed, looked up)": "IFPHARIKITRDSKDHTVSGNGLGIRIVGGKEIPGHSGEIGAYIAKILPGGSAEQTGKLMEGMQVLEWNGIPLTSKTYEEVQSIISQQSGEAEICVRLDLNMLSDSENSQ", "assay": "holdup assay", "design": "key: below the threshold = too weak to quantify, mostly under pKd 3.1 to 4", "conditions": "plain residues with an end cap or a label only (N-terminal biotin on a linker: ado-ado)", "values": [{"binder": "PYPTADHMLA", "note": "[JUP, P14923]", "pKd": "below the threshold"}]}, {"target": "PDZRN4_1, Q6ZMN7", "sequence (Q6ZMN7 213-318)": "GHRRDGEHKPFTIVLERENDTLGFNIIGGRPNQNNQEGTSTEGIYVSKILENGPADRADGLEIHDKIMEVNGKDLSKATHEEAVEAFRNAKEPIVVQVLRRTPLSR", "assay": "holdup assay", "design": "key: below the threshold = too weak to quantify, mostly under pKd 3.1 to 4", "conditions": "plain residues with an end cap or a label only (N-terminal biotin on a linker: ado-ado)", "values": [{"binder": "PYPTADHMLA", "note": "[JUP, P14923]", "pKd": "below the threshold"}]}, {"target": "PICK1, Q9NRD5", "sequence (Q9NRD5 17-115)": "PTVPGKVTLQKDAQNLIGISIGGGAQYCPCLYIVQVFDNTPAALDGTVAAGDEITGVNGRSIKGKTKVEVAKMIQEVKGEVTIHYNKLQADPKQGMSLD", "assay": "holdup assay", "design": "key: below the threshold = too weak to quantify, mostly under pKd 3.1 to 4", "conditions": "plain residues with an end cap or a label only (N-terminal biotin on a linker: ado-ado)", "values": [{"binder": "PYPTADHMLA", "note": "[JUP, P14923]", "pKd": "below the threshold"}]}, {"target": "T11, TIAM2, Q8IVF5", "T11 sequence (Q8IVF5 885-986, limits assumed, looked up)": "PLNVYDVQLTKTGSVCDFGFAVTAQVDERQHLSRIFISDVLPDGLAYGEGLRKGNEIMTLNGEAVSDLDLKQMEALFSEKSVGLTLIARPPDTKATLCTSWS", "assay": "holdup assay", "design": "key: below the threshold = too weak to quantify, mostly under pKd 3.1 to 4", "conditions": "plain residues with an end cap or a label only (N-terminal biotin on a linker: ado-ado)", "values": [{"binder": "PYPTADHMLA", "note": "[JUP, P14923]", "pKd": 3.92}]}]}
